Results on 6 molecules are retold here after patent publication US20040166530A1 (BAYLOR COLLEGE OF MEDICINE, published 2004).

The target of assay [1] is phosphorylated IκB peptide (residues 21-41, phosphorylated on Ser-32 and Ser-36). Briefly: HeLa lysate on IκB peptide beads, anti-Skp1 immunoblot (FIG. 8).
Assay [2] concerns the target Cdc4/Skp1^F complex (S. cerevisiae) (UniProt P52286). Briefly: binding of 32P-labeled Cln kinase complexes to anti-Skp1^F immune complexes, autoradiography (FIG. 5A).
Assay [3] addresses T1, Grr1/Skp1^F/Cdc53 complex (S. cerevisiae, UniProt P24814 1-1151; P52286 1-194; Q12018 1-815).
T1 construct: also called Cdc53/Skp1/Grr1 complex; Grr1/Skp1/Cdc53 complex; not shown: N-terminal His6-G10 (T7 gene 10) tag; N-terminal Flag tag; N-terminal Myc tag
The description is as above.

Assay [4] concerns the target T2, Myc-tagged Cdc53 (Cdc53^M) (S. cerevisiae, UniProt Q12018 1-815).
T2 construct: Expressed from baculovirus in insect cells; not shown: N-terminal Myc tag
T2 sequence (looked up): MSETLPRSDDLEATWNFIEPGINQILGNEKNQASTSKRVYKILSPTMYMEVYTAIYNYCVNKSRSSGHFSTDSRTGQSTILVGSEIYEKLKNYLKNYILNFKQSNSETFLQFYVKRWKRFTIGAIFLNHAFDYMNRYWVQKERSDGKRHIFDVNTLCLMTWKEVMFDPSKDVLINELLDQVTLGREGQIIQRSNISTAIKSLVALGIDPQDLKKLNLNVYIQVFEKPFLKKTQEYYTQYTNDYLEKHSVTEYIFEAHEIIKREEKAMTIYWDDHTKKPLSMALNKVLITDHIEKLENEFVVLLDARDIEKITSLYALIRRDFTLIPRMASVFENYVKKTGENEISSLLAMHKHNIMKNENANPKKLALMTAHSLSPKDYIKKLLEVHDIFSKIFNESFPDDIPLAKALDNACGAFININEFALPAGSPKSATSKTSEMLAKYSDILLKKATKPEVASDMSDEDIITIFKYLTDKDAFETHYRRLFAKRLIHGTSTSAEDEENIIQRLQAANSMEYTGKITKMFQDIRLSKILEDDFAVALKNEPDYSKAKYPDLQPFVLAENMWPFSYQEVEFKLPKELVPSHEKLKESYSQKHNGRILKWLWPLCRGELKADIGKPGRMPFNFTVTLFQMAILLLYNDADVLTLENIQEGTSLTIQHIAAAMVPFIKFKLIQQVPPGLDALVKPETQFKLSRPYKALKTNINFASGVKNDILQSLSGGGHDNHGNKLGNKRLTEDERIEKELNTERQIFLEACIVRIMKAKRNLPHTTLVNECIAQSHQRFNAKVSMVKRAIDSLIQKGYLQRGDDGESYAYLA
Briefly: anti-Myc immunoprecipitation from co-infected insect cells, immunoblot (FIG. 1A). The text has this: Insect cells were co-infected with various combinations of baculoviruses expressing Myc-tagged Cdc53 (Cdc53^M), Cdc34, Cdc4, and Skp1. Anti-Myc immune complexes from lysates of these infected cells were immunoblotted to identify associated proteins (See, FIG. 1A). […] Thus, one function of Skp1 is to facilitate association of Cdc53 with Cdc4. […] Furthermore, it appeared that Cdc53 can simultaneously associate with both Cdc34 and Skp1, as the association of Gst-Skp1 with Cdc34 is enhanced in the presence of Cdc53^M (See, FIG. 1C).
For recombinant protein expression and assembly of complexes, 4×10⁵ insect cells (Hi5, Invitrogen) were infected with the indicated virus combinations for 40 hours. These combinations included baculoviruses expressing Myc-tagged Cdc53 (Cdc53^M), Cdc34, Cdc4, and Skp1. Cells were then harvested and disrupted in lysis buffer (50 mM Tris-HCl (pH 7.5), 150 mM NaCl, 0.5% Nonidet P40, 10 mM NaF, 10 mM β-glycerol phosphate, 1 mM PMSF, and 5 μg/ml each leupeptin, antipain, and aprotinin). For isolation of protein complexes, typically about 3 ml of lysis buffer was used per 0.5×10⁸ cells.
To examine the assembly of recombinant yeast proteins, 0.4 ml lysate were typically derived from 2×10⁶ cells. […]
(In general: Immunoblotting shows a protein as a band on a membrane.)

Assay [5] addresses T2, Myc-tagged Cdc53 (Cdc53^M). Briefly: anti-Cdc53^M immune complexes from insect cells, immunoblot (FIG. 2C). The protocol:
To examine the assembly of recombinant yeast proteins, 0.4 ml lysate were typically derived from 2×10⁶ cells. […] Immunopurification was performed by incubating the lysates at 4° C. for 2 hours with 4 μg of the anti-Myc or anti-G10 antibody and 8 μl of Protein A-Sepharose, or with 8 μl of immobilized anti-Flag antibodies (Kodak; See, Example 1). Immune complexes were washed three times with 1 ml of lysis butter prior to SDS-PAGE.
Associated proteins were then washed three times with 1 ml of lysis buffer prior to SDS-PAGE and immunoblotting, were performed as described above.
As shown in this Figure, phosphorylated Sic1 efficiently associates with Cdc53/Skp1/Cdc4 complexes, and this association is dependent upon the presence of Skp1 (See, FIG. 2C, lanes 6 and 8). Typically, 10-20% of the input phosphorylated Sic1 was bound at about 20 nM Sic1. […] Consistent with the results in FIG. 1, the level of Cdc4 found in immune complexes lacking Skp1 were >10-fold lower than that found in the presence of Skp1.

Assay [6] has as its target T1, Grr1/Skp1^F/Cdc53 complex. Briefly: binding of 32P-labeled Sic1 complexes to anti-Skp1^F immune complexes, autoradiography (FIG. 4B). The protocol: These experiments were conducted as described above, with the exception being that Grr1 was substituted for Cdc4 (approximately 100 ng). Proteins were separated by SDS-PAGE, and blotted with anti-Skp1 anti-Myc to detect Grr1G10 and Cdc53^M, with anti-Skp1 antibodies.
In this Figure, lanes 2-5 contain anti-Skp1^F immune complexes derived from insect cells infected with the indicated baculovirus combinations were used for binding reactions with ³²P-labeled Sic1 complexes. Ten percent of the input Sic1 complex (lane 1) was included as a control. The presence of Cdc4, Skp1, Cdc53, and Grr1 was verified by immunoblotting.

The target of assay [7] is Flag-Cdc4 (Cdc4^F) (S. cerevisiae) (UniProt P07834). Briefly: binding reaction with anti-Flag (Cdc4^F) immune complexes with increasing Skp1, immunoblot (FIG. 2D).

T1 sequence (P24814 whole entry, chain 1 of 2): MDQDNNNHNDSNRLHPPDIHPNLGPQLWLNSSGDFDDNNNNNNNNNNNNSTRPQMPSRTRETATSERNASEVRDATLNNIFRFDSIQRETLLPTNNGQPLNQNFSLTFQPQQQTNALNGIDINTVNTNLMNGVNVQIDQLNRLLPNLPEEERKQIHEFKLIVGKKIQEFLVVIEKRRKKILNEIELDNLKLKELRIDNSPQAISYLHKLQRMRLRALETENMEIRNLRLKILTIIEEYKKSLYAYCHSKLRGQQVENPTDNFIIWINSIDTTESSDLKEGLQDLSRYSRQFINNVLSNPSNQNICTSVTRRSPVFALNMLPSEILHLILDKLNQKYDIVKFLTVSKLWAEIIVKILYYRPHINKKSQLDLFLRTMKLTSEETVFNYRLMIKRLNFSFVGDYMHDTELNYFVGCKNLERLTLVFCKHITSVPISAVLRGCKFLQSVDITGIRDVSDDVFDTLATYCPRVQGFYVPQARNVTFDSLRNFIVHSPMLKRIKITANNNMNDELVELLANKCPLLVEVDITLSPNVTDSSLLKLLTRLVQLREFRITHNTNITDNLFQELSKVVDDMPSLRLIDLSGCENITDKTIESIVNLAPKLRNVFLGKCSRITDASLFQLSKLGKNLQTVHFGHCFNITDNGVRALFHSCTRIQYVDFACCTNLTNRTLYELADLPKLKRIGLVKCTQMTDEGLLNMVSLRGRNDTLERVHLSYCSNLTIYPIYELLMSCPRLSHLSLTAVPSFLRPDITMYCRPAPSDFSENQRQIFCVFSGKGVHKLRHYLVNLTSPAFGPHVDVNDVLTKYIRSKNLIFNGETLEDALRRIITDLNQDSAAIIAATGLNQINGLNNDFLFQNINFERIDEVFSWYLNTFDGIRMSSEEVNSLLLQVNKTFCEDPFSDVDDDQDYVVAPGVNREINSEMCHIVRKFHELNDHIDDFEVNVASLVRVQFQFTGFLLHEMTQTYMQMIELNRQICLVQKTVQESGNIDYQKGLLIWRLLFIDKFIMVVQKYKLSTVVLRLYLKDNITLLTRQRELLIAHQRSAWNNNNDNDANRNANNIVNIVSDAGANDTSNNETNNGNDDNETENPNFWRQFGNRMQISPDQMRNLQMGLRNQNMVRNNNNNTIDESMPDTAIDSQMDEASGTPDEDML
T1 sequence (P52286 whole entry, chain 2 of 2): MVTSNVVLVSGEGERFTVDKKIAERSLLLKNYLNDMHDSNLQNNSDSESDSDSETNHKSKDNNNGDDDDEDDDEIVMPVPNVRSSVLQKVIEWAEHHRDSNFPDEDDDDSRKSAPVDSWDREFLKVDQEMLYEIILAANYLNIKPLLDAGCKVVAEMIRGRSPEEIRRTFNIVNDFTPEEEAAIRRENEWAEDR
Chain of Cdc4/Skp1^F complex (S. cerevisiae) (P52286 whole entry, one chain of several): as the sequence (P52286 whole entry, chain 2 of 2) above
Chain of phosphorylated IκB peptide (residues 21-41, phosphorylated on Ser-32 and Ser-36) (peptide, as listed by the source): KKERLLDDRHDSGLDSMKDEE

“Skp1 (in HeLa cell lysates) (from UniProt P63208 2-163)” yielded a percent of the Skp1 in the extracts that can associate with IκB in assay [1] of 1%.

B1: phosphorylated Cln2HA (protein, S. cerevisiae, UniProt P20438 1-545, looked up, not shown: small tags and cut ends)
chain: MASAEPRPRMGLVINAKPDYYPIELSNAELLSHFEMLQEYHQEISTNVIAQSCKFKPNPKLIDQQPEMNPVETRSNIITFLFELSVVTRVTNGIFFHSVRLYDRYCSKRIVLRDQAKLVVATCLWLAAKTWGGCNHIINNVVIPTGGRFYGPNPRARIPRLSELVHYCGDGQVFDESMFLQMERHILDTLNWNIYEPMINDYVLNVDENCLMQYELYENQVTYDKQCSEKRQSQLSQDSDATVDERPYQNEEEEEEDLKLKIKLINLKKFLIDVSAWQYDLLRYELFEVSHGIFSIINQFTNQDHGPFLMTPMTSESKNGEILSTLMNGIVSIPNSLMEVYKTVNGVLPFINQVKEYHLDLQRKLQIASNLNISRKLTISTPSCSFENSNSTSIPSPASSSQSHTPMRNMSSLSDNSVFSRNMEQSSPITPSMYQFGQQQSNSICGSTVSVNSLVNTNNKQRIYEQITGPNSNNATNDYIDLLNLNESNKENQNPATAHYLNGGPPKTSFINHGMFPSPTGTINSGKSSSASSLISFGMGNTQVI
modifications: autophosphorylated in Cln2/Cdc28 complexes with ATP; sites not stated
For B1, the values for the percent of the input associated (% of the input) in assay [2] and in assay [3] were 6 and 40, respectively.

B2: Cdc34 (enzyme, S. cerevisiae, UniProt P14682 1-295, looked up)
chain: MSSRKSTASSLLLRQYRELTDPKKAIPSFHIELEDDSNIFTWNIGVMVLNEDSIYHGGFFKAQMRFPEDFPFSPPQFRFTPAIYHPNVYRDGRLCISILHQSGDPMTDEPDAETWSPVQTVESVLISIVSLLEDPNINSPANVDAAVDYRKNPEQYKQRVKMEVERSKQDIPKGFIMPTSESAYISQSKLDEPESNKDMADNFWYDSDLDDDENGSVILQDDDYDDGNNHIPFEDDDVYNYNDNDDDDERIEFEDDDDDDDDSIDNDSVMDRKQPHKAEDESEDVEDVERVSKKI
notes: Untagged baculovirus form in the assembly experiments; also called E2 Cdc34
Consider B2, for which the binding result in assay [4] is “binds”.

B3: phosphorylated Cln1HA (protein, S. cerevisiae, UniProt P20437 1-546, looked up, not shown: small tags and cut ends)
chain: MNHSEVKTGLIVTAKQTYYPIELSNAELLTHYETIQEYHEEISQNVLVQSSKTKPDIKLIDQQPEMNPHQTREAIVTFLYQLSVMTRVSNGIFFHAVRFYDRYCSKRVVLKDQAKLVVGTCLWLAAKTWGGCNHIINNVSIPTGGRFYGPNPRARIPRLSELVHYCGGSDLFDESMFIQMERHILDTLNWDVYEPMINDYILNVDENCLIQYELYKNQLQNNNSNGKEWSCKRKSQSSDDSDATVEEHISSSPQSTGLDGDTTTMDEDEELNSKIKLINLKRFLIDLSCWQYNLLKFELYEICNGMFSIINKFTNQDQGPFLSMPIGNDINSNTQTQVFSIIINGIVNSPPSLVEVYKEQYGIVPFILQVKDYNLELQKKLQLASTIDLTRKIAVNSRYFDQNASSSSVSSPSTYSSGTNYTPMRNFSAQSDNSVFSTTNIDHSSPITPHMYTFNQFKNESACDSAISVSSLPNQTQNGNMPLSSNYQNMMLEERNKENRIPNSSSAEIPQRAKFMTTGIFQNTGELTNRASSISLSLRNHNSSQL
modifications: autophosphorylated in Cln1/Cdc28 complexes with ATP; sites not stated
In the case of B3, the percent of the input associated (% of the input) came to 6 in assay [2] and 40 in assay [3].

B4: Cdc4 (other, S. cerevisiae, UniProt P07834 1-779, looked up)
chain: MGSFPLAEFPLRDIPVPYSYRVSGGIASSGSVTALVTAAGTHRNSSTAKTVETEDGEEDIDEYQRKRAAGSGESTPERSDFKRVKHDNHKTLHPVNLQNTGAASVDNDGLHNLTDISNDAEKLLMSVDDGSAAPSTLSVNMGVASHNVAAPTTVNAATITGSDVSNNVNSATINNPMEEGALPLSPTASSPGTTTPLAKTTKTINNNNNIADLIESKDSIISPEYLSDEIFSAINNNLPHAYFKNLLFRLVANMDRSELSDLGTLIKDNLKRDLITSLPFEISLKIFNYLQFEDIINSLGVSQNWNKIIRKSTSLWKKLLISENFVSPKGFNSLNLKLSQKYPKLSQQDRLRLSFLENIFILKNWYNPKFVPQRTTLRGHMTSVITCLQFEDNYVITGADDKMIRVYDSINKKFLLQLSGHDGGVWALKYAHGGILVSGSTDRTVRVWDIKKGCCTHVFKGHNSTVRCLDIVEYKNIKYIVTGSRDNTLHVWKLPKESSVPDHGEEHDYPLVFHTPEENPYFVGVLRGHMASVRTVSGHGNIVVSGSYDNTLIVWDVAQMKCLYILSGHTDRIYSTIYDHERKRCISASMDTTIRIWDLENIWNNGECSYATNSASPCAKILGAMYTLQGHTALVGLLRLSDKFLVSAAADGSIRGWDANDYSRKFSYHHTNLSAITTFYVSDNILVSGSENQFNIYNLRSGKLVHANILKDADQIWSVNFKGKTLVAAVEKDGQSFLEILDFSKASKINYVSNPVNSSSSSLESISTSLGLTRTTIIP
notes: Untagged, expressed from baculovirus in insect cells
Regarding B4, in assay [5], the “fold lower level of Cdc4 in immune complexes lacking Skp1 than in the presence of Skp1” value is above 10 fold.

B5: phosphorylated Sic1 (other, S. cerevisiae, UniProt P38634 1-284, looked up)
chain: MTPSTPPRSRGTRYLAQPSGNTSSSALMQGQKTPQKPSQNLVPVTPSTTKSFKNAPLLAPPNSNMGMTSPFNGLTSPQRSPFPKSSVKRTLFQFESHDNGTVREEQEPLGRVNRILFPTQQNVDIDAAEEEEEGEVLLPPSRPTSARQLHLSLERDEFDQTHRKKIIKDVPGTPSDKVITFELAKNWNNNSPKNDARSQESEDEEDIIINPVRVGKNPFASDELVTQEIRNERKRAMLRENPDIEDVITYVNKKGEVVEKRRLTDEEKRRFKPKALFQSRDQEH
modifications: phosphorylated in vitro by Gst-Cdc28HA/Cln1HA/Cks1 with ATP; sites not stated
notes: also called Cln1/Cdc28-phosphorylated Sic1; phosphorylated Sic1 complexes
For the molecule B5, in assay [6], the binding result is reported as “no binding”. In assay [7], this molecule gave a fold stimulation by Skp1 of the association of Sic1 with Cdc4 of 5 fold.
